What was measured:
[1] = biological target: NrnC from Agrobacterium tumefaciens (Agrobacterium tumefaciens str. C58); test: crystal structure; apo and Mn2+-soaked crystals, space group I422, two protomers in the asymmetric unit; octamer from crystal packing, interfaces analysed with PISA
[2] = biological target: NrnC from Agrobacterium tumefaciens (Agrobacterium tumefaciens str. C58); test: SEC; Superdex 200, 25 mM Tris-HCl pH 8.0, 100 mM NaCl; calibrated with Ec_RND, Tle1, conalbumin and aldolase; self-association, octamer
[3] = biological target: NrnC from Agrobacterium tumefaciens (Agrobacterium tumefaciens str. C58); test: AUC; sedimentation velocity, 1 mg/mL At_NrnC in 25 mM Tris-HCl pH 8.0, 100 mM NaCl, without or with 5 mM MnCl2, 60,000 rpm, 20°C, Sedfit; self-association, octamer

Measured: stoichiometry N

NrnC from Agrobacterium tumefaciens (enzyme)
8: all assays above

Source: paper PMC6330322
